Source: paper PMC7128310, “Negative Regulation of TLR Signaling by BCAP Requires Dimerization of Its DBB Domain” (The Journal of Immunology Author Choice, 2020)

Molecular target: the molecule itself
Assay: SEC-MALS; 50 μl at 2 mg/ml on Superdex 200 Increase 10/300 GL

B1: BCAP DBB-ANK (residues 179-404) (domain or fragment, human, UniProt Q6ZUJ8 179-404, looked up)
chain: MVVQPDRIRCGAETTVYVIVRCKLDDRVATEAEFSPEDSPSVRMEAKVENEYTISVKAPNLSSGNVSLKIYSGDLVVCETVISYYTDMEEIGNLLSNAANPVEFMCQAFKIVPYNTETLDKLLTESLKNNIPASGLHLFGINQLEEEDMMTNQRDEELPTLLHFAAKYGLKNLTALLLTCPGALQAYSVANKHGHYPNTIAEKHGFRDLRQFIDEYVETVDMLKSH
notes: B cell adaptor protein (BCAP), human, DBB and ANK domains, residues 179-404; Cloned into pMCSG7 or pMCSG9; source: E. coli BL21(DE3), purified (Ni-NTA, TEV, Superdex 200)
stoichiometry N: 2
